For 19 sequences, protein production results are on record in a protein production outcome set (Wang et al. 2014).

This data set can be described thus: label from the status in PepcDB records.
In the case of “MKMDYKEQSHIIPTYKRFDIVLEKGQGVYLFDDKAKKYLDFSSGIGVCALGYNHAKFNAKIKAQVDKLLHTSNLYYNENIAAAAKNLAKASALERVFFTNSGTESIEGAMKTARKYAFNKGVKGGQFIAFKHSFHGRTLGALSLTANEKYQKPFKPLISGVKFAKYNDISSVEKLVNEKTCAIILESVQGEGGINPANKDFYKALRKLCDEKDILLIADEIQCGMGRSGKFFAYEHAQILPDIMTSAKALGCGLSVGAFVINQKVASNSLEAGDHGSTYGGNPLVCAGVNAVFEIFKEEKILENVNKLTPYLEQSLDELINEFDFCKKRKGLGFMQGLSLDKSVKVAKVIQKCQENALLLISCGENDLRFLPPLILQKEHIDEMSEKLRKALKSF”, the protein production entry is “not failed”. Under “MKMISTIQKKETVMVAPIPAKRGRKPAVATAPATGQVQSLTRGLKLLEWIAESNGSVALTELAQQAGLPNSTTHRLLTTMQQQGFVRQVGELGHWAIGAHAFMVGSSFLQSRNLLAIVHPILRNLMEESGETVNMAVLDQSDHEAIIIDQVQCTHLMRMSAPIGGKLPMHASGAGKAFLAQLSEEQVTKLLHRKGLHAYTHATLVSPVHLKEDLAQTRKRGYSFDDEEHALGLRCLAACIFDEHREPFAAISISGPISRITDDRVTEFGAMVIKAAKEVTLAYGGMR” stands “not failed”; under “MKNFFNHIELKFANLLSKISFMLLMVVGLLMVYFLFREVYNLVLLAFLSESEVHYYDILESILSFFIFFEFLTLIITSLRNKGHVSLIFLLSLGITSLIRLLLTYHERLVGVLLIASAILILIIGVFVLKKFVFPNDDTADYF”, “failed”. Under “MKNFLETIEDMILIINREGRLLYANTAVPKKLGYPHEELMSMHILTITSAGKMAEGEKILAELFAGKKESLPLSLEKKEGTSIPAKARIWQGKWHNEPCLFAIIKDLSKEERASSPPFLEHHHHHH” stands “not failed”; under “MKNFVVKTIANAGALAVAVWLLDKITLTGDSTGKKIGTLIVVALVFGLVNFLVKPIVKVLTFPLFILTLGLITLVVNALMLLLTSWLADKLDLSFHVEGFWTAVVGGLIISVVSWALNVVLPDDKD”, “failed”. With “MKNIVAGILAHVDSGKTTLSEAMLYQTGRIRKLGRVDHQDTYLDTDSQEKDRGITIFSKQAELTYEDMHIALLDTPGHVDFGTEMERTLQVLDYAVLVINGMDGVQSHTETLWKLLERYEIPVFIFVNKMDMTGYDREYLMDNIRHRLSDGCVDFLCEDAGEHIAMCDENMLERFLETGENREDDIAKAVADRKLFPCYFGSALKNDGVAELLDGMNRYVTEPRRTDEFGARVFKIGRDDKGERLTYMKITGGTLRLKDVLTLTGRQGEETLEKVNQIRVYSGAKYDMVDHVTAGCVCAVPGLVNTYGRQGIGACPDGELPSLEPVLSYKVMYPTDVDAVTMVSKLRQLEEEDPLLQVQWNEAAGEIYIKVMGQVQLEVVAQMVRDRFGIAITYGQGRITYKETIAAPVMGVGHFEPLRHYAEVHLLLEPMENGSGMCFDSICSEDVLDKNWQRLILTHLQEREFRGVLTGSPITDMKITITAGRAHQKHTEGGDFRQATYRAVRQGLMMAESVLLEPVYAFKIEVPQEYAGRVLADIVKMSGSMDGQEIAGETTVITGHAPVYTMREYYSELTAFSRGTGRLQVDIDGYQPCHNTEEVLAERHYDPELDRFNPSSSVFCAHGAGYLVDWYDVYENMHVKEDPGFEISGQLGYTEDGDVTDIPVNRPGKSVSDMSITDEELSEIFARTFGGDYKDKDVALNGRFRRTTSEYKVNGTSSRGSDGTAGGGASAGTAGDSSNSGYRGNGQYNKSQSRDRQPGNGPVVGSRPADRGIATPGAFKRRKSGEDYVIVDGYNVIFAWDTLRELSEHNIDSARGKLMDILSNYQGYMNCHLIVVFDGYKVKDNKGERFPYDDIEVVYTKEGETADAHIEKLTHELARKHKVTVVTSDGLEQIVTMGQGAIRMSSRDFKLEVERVNEHLRENYLKND” the entry was “failed”; with “MKNLLKRYVSIKNIIKVIELDFFANLKLRYYKLAMKLFKIEDEKFDEILLKAGMNAVSSTYLPVVFLTSIILGLIIFIIFLIVFNIFYAIFGLIGGIFIVILIGVLYPYVLAEEKAKSIDENLPYAFAFISALSSANIPVVEIFTSLSKEDIYGGMSKEAKEIVKDTKVFNYDIITTFLRRARITPSKKLSSVYYNIVASLIVGAEMKNIFHEIYERLMEDRKLELFEAIEKVEILSEFYVIACGMIPLFVVMTVPVASSISAILQTASLFGDPKLLPLTFYLWVPIASIIFMGLVYGILPKDFKLNVSLLDVLKEFDEPEIEGIKMKFKWKPVHFITLFFWMLSIISFMLFFIRKSIFKFHGTDFLMFGILFLILPFILTSYWHFIIENQKERYYPIFLNDLTMAVRSGMDIIRAMQVCARTNYGPLTKIVKKMAIQMSWGRPVNEVFADLERTEKSLIAKRIASILKECAVSGGDVKDILTSVTVHAYKLSEMKREISARQFIYVVVIYLSFFLYIGTSYIMVHSLLPTLLKNIHGLSVEFYKNYLFQGILIYSIFSGASLGILTERSIIAGIKHILLMLIVGYMLFKFYIGG”, “failed”; with “MKNRALLLIDFQKGIESPTQQLYRLPAVLDKVNQRIAVYRQHHAPIIFVQHEETELPFGSDSWQLFEKLDTQPTDFFIRKTHANAFYQTNLNDLLTEQAVQTLEIAGVQTEFCVDTTIRMAHGLGYTCLMTPKTTSTLDNGHLTAAQIIQHHEAIWAGRFLTFLSL”, “not failed”. Turning to “MKNTPIERNVIDETINEFQIVDFSKATIREVKAIASKAEAVSGVEFIKMEMGVPGLPASAVGVKAEIEALQNGIASLYPDINGLPELKKEASDFIKAFINVDLSPEGCVPVTGSMQGTFASFLTCSQCDEKKDTILFIDPGFPVQKQQLVVMGQKYETFDVYDYRGDKLKEKLESYLRKGNISAIIYSNPNNPSWICLKDEELRIIGELATQYDVIVLEDLAYFAMDFRQDLSTPYQAPFQPSVAHYTDNYVLLISGSKAFSYAGQRIGVSCISDKLYHRSYPGLTKRYGGGTFGTVFIHRVLYALSSGTSHSAQYAMAAMLKAANEGQYNFLSEVKVYGDRAQKLKEIFLRHGFYLVYDNDLGDPIADGFYFTIGYPGMTSGELAKELMYYGVSAISLVTTGSHQEGLRACTSFIKDHQYAQLDERMKLFAEHHPIA”, the protein production entry is listed as “not failed”. Under “MKNVGDLMQRLQKMMPAHIKPAFKTGEELLAWQKEQGAIRSAALERENRAMKMQRTFNRSGIRPLHQNCSFENYRVECEGQMNALSKARQYVEEFDGNIASFIFSGKPGTGKNHLAAAICNELLLRGKSVLIITVADIMSAMKDTFRNSGTSEEQLLNDLSNVDLLVIDEIGVQTESKYEKVIINQIVDRRSSSKRPTGMLTNSNMEEMTKLLGERVMDRMRLGNSLWVIFNWDSYRSRVTGKEY” stands “failed”; under “MKNVKFIKKSESVIGLWLPILVILILFAFLVAESVIMKDIILSNSVVALATAIMASAALVTILVSNRQVQLMARQQRLKAIEDRLEKFYIPLIKAFSSYVYTAQTEDEIETIITCRRYLAGNNLLRVLPMHFKFKADKIAGSANWTFYAKEDFEQWKEALDVLWEEFLEVLKEYYTLSGTEISLPEKPDWLIGYK”, “failed”; under “MKNVLYTLFAISICLMLGKLANYLLAALPASLYGMIIYALFLQLNWFSPDKITKTNQWFIKHMGVCLVPAGMGIINHFQLIQQHGIALVVIIFSSTFILLTVIGYLSERYLITPDNIKSKAPTGSR”, “failed”. With “MKPADLTNADRIALELGHAGRNAIPYLDDDRNADRPFTLNTYRPYGYTPDRPVVVVQHGVLRNGADYRDFWIPAADRHKLLIVAPTFSDEIWPGVESYNNGRAFTAAGNPRHVDGWTYALVARVLANIRAAEIADCEQVYLFGHSAGGQFVHRLMSSQPHAPFHAVTAANPGWYTLPTFEHRFPEGLDGVGLTEDHLARLLAYPMTILAGDQDIATDDPNLPSEPAALRQGPHRYARARHYYEAGRRAAAQRGLPFGWQLQVVPGIGHDGQAMSQVCASLWFDGRMPDAAELARLAGSQSA” the entry was “failed”. Under “MKPALHAIDATLPAPPTYTPAGNECALFEHAWKRRVPLLLKGPTGCGKTRFVAHMAARLGLPLFTVSCHDDLTAADLTGRYLLKGGETVWVDGPLTRAVRQGGICYLDEVVEARKDVAVVLHPLADDRRVLPLERTGEELQAPPHFMLVVSYNPGYQSLLKALKPSTRQRFAAIEFGFLAPEQEIAVVAAESGLPSERVAPLVALAGRLRKLKGHDLEEGVSTRLLVYCASLISEGLPVRDAVLAGLIEPLTDDADVKAALIEVAGVVIGLEHHHHHH” stands “not failed”; under “MKPDDLPSDVSSDPLLRLRRQISDEASQCVACGLCVPHCPSYRVTLSEADSPRGRIALMSGVAAGRIPMNARFALHMDRCLTCRACEAVCPNHVRFGELIDDAREMISSPPLEFGGNNPGARVSSFRKWVERELIARPSRIDALRPLLRFYQRSGLQKWVRKSGLLGKTKLALLEAQIPFIDQPRSSSWSVVYPAVGKPRGEVGLFLGCVARVADATTLDAALFVLNQLGYVVHVPTGQTCCGALHQHRGDMDAAAQLERQNVEAFAGLDLGAIITTASGCGAQLSEYSSFSGSQRTTRAPAVSSQAGGETTRRSPPKVLDISEFLAEAEGWEDARFQPLPHKILVHEPCTLRNVLRASTYAYKLLERIPQAQVVPLAGNDQCCGAAGTYFLDQPEISAALLEDKVTALKAGQACYLATSNVGCALHIAAGLRRPGLGIEVIHPVTLIARQMGMQSQSLK”, “failed”. For the sequence “MKPEHRMDTISKLEEGAETPVTGRVMKISSPRTFTTRKGREGKLANVIIADDTGELRAVFWTENIKLLKKFREGDVIRIKDVNIRGGFGGRKEAHLMPRSTVEVLDPLEHHHHHH”, the protein production entry is listed as “not failed”. On to “MKPGGTVRALDRLGSAEYPSSHMEVLVAEGTRPSRQRNQAAAAAAGEILYFLDDDSLTSPDFLARAAAHLADPSIAAVGGPSLTPASDSRFQRAIGVVLASRLGGGGARNRYRATGSPRRTSERELILCNLAMRRDVFLAEGGLDERLYPNEENELMDRISKRGMSLVHDPDLAVRRSQRPTFRAFVRQFFGYGRGRGEQTRIAGVRSVVDFLPTVFLIYLLLLPVAPWAPCFLPAALYGAAVMVSALSGAVHSRLYAALPWLVVLYPTLHLCYGAGLLKGLLAPRFRSGGGETAPVTIRCVKEFGTPWHLPAHGPREVPR”, for which the protein production result was “failed”. Under “MKPKVFITREIPEVGIKMLEDEFEVEVWGDEKEIPREILLKKVKEVDALVTMLSERIDKEVFENAPKLRIVANYAVGYDNIDIEEATKRGIYVTNTPDVLTDATADLAFALLLATARHVVKGDRFVRSGEWKKRGVAWHPKWFLGYDVYGKTIGIIGLGRIGQAIAKRAKGFNMRILYYSRTRKEEVERELNAEFKPLEDLLRESDFVVLAVPLTRETYHLINEERLKLMKKTAILINIARGKVVDTNALVKALKEGWIAGAGLDVFEEEPYYNEELFKLDNVVLTPHIGSASFGAREGMAELVAKNLIAFKRGEIPPTLVNREVIKIRKPGFE” stands “not failed”; under “MKPNEVQIQLERLFRTPIEHPDSSKTAPIAISDLFVQIDPAAGEVQLFNDKDEELHRVVIYDWIQEGRTEIPSAMRQELRAAVKRLHAARFFDKDQFVRPFSVALTQEDFTIIEELLFIDDELIQLDSALLENLDEELNNFLAELLPDIKLEHHHHHH”, “not failed”.
